Article PMC11574021, “CEP192 localises mitotic Aurora-A activity by priming its interaction with TPX2” (The EMBO Journal, 2024)
Several values for one entry are separate records, joined by “and”; a condition that tells them apart may be missing. Equal entries are not always repeated. Where no end group is shown, it is not given here. FAM = 5(6)-carboxyfluorescein

Assays:
Aurora-A = details: fluorescence binding; ref Park et al. (2023) Figure 3B; cited from earlier work
Description: page 11: cycle control) in these cell lines is still useful. […] As for combined depletion of CEP192 and TPX2, this was very toxic in both U251 and RPE1 cells, unsurprising given that both proteins are essential for proliferation.

[1] = target: T1, Aurora-A^CAKD (Aurora-A kinase domain, aa 122–403 C290A, C393A), unphosphorylated (human, UniProt O14965 122-403, C290A | C393A); assay: fluorescence polarisation; competition: 10 μM unphosphorylated Aurora-A^CAKD preincubated with 100 nM FAM-TPX2 7-43, CEP192 competitor serially diluted; 25 mM HEPES pH 7.5, 150 mM NaCl, 2 mM DTT, 5 mM MgCl2, 0.01% Tween 20; details: both partners purified
T1 construct: Aurora-A kinase domain, human, residues 122-403, variant lacking surface cysteines; also called Aurora-A 122–403 C290A C393A; unphosphorylated Aurora-A^CAKD; source: E. coli RIL, co-expressed with lambda phosphatase, purified (HisTrap, TEV cleavage, SEC); not shown: His6, N-terminal, cleaved
T1 sequence (looked up): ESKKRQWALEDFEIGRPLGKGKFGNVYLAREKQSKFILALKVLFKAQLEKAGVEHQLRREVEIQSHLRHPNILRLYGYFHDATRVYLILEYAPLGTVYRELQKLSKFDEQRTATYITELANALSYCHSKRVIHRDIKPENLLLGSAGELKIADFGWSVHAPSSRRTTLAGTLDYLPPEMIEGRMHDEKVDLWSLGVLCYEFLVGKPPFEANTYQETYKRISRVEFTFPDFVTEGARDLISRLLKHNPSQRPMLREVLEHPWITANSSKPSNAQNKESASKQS

[2] = target: T2, phosphorylated Aurora-A^CAKD (Aurora-A 122–403 C290A C393A, not co-expressed with lambda phosphatase) (human, UniProt O14965 122-403, C290A | C393A, phosphorylated (sites of this preparation not printed in the text shown)); assay: ITC; 250 μM Aurora-A in the syringe, 25 μM CEP192 construct in the cell; 25 °C; 20 mM tris pH 7.5, 200 mM NaCl, 10% glycerol, 5 mM MgCl2; details: both partners purified
T2 construct: Aurora-A kinase domain, human, residues 122-403; also called phosphorylated kinase; Aurora-A 122–403 C290A C393A phosphorylated protein; source: E. coli B834, not co-expressed with lambda phosphatase, purified (HisTrap, TEV cleavage, SEC); not shown: His6, N-terminal, cleaved
T2 sequence (looked up): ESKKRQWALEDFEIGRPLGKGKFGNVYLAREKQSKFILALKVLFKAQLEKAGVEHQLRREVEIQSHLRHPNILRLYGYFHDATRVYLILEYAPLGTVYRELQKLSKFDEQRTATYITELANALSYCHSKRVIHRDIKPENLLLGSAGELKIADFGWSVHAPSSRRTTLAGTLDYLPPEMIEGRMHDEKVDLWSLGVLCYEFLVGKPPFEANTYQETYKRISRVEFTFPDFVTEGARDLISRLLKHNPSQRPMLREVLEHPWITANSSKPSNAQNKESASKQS

[3] = target: T1, Aurora-A^CAKD (Aurora-A kinase domain, …); assay: as above; details: both partners purified
[4] = target: T2, phosphorylated Aurora-A^CAKD (Aurora-A …); assay: cell-based or functional assay
[5] = target: T1, Aurora-A^CAKD (Aurora-A kinase domain, …); assay: fluorescence polarisation; competition: 25 μM Aurora-A kinase domain preincubated with 100 nM FAM-TACC3 522-536, CEP192 competitor serially diluted; 25 mM HEPES pH 7.5, 150 mM NaCl, 2 mM DTT, 5 mM MgCl2, 0.01% Tween 20; details: both partners purified
[6] = tested on: His-tagged Aurora-A 122-403 or full-length (1-403); assay: Pull-down of Aurora-A by GST-tagged CEP192; assay type: binding, human; details: Aurora-A 122-403 and 1-403, western blot
Experimental: GST-tagged CEP192 constructs were overexpressed in LB and purified on glutathione resin using standard methods. Tagged proteins were eluted in 100 mM TRIS pH 7.5, 500 mM NaCl, 1 mM DTT, 10% Glycerol, 10 mM reduced glutathione, before dialysis in elution buffer without glutathione and storage at −80 °C. About 250 μg of GST-tagged CEP192 constructs or GST as a control were immobilised on 50 μl of glutathione resin (GE healthcare) per sample equilibrated in pull-down buffer (50 mM tris pH 7.5, 300 mM NaCl, 1 mM DTT, 5 mM magnesium chloride, 10% glycerol, 0.1% Tween 20). After 60 min of immobilisation the beads were washed three times in 900 μl of binding buffer to remove any excess protein. About 35 μg of His-tagged Aurora-A 122–403 or full-length protein (1–403) was added to samples of immobilised truncation or GST control. These were left to bind for 60 min on the roller. The beads were pelleted and washed three times in 900 μl of binding buffer. The resin was resuspended in 100 μl of SDS loading dye. After separation on an SDS-PAGE gel, these were transformed onto nitrocellulose membranes before probing with anti-GST and anti-His primary antibodies.

[7] = target: T2, phosphorylated Aurora-A^CAKD (Aurora-A …); assay: fluorescence polarisation; direct fluorescence anisotropy: Aurora-A diluted across the plate, 50 nM tracer FAM-CEP192 501–533; 25 mM HEPES pH 7.5, 150 mM NaCl, 2 mM DTT, 5 mM MgCl2, 0.01% Tween 20; 1 h at room temperature; details: both partners purified
[8] = target: T1, Aurora-A^CAKD (Aurora-A kinase domain, …); assay: as above; details: both partners purified
[9] = target: T3, Aurora-A^M7KD (Aurora-A 122–403 D274N C290A C393A N332A Q335A T347A D350A) (human, UniProt O14965 122-403, D274N | C290A | C393A | N332A | Q335A | T347A | D350A); assay: as above; details: both partners purified
T3 construct: Aurora-A kinase domain, human, residues 122-403, with crystal-contact mutations in the C-lobe; also called Aurora-A^M7KD-D; Aurora^M7KD; source: E. coli, purified; not shown: His6, N-terminal, cleaved
T3 sequence (looked up): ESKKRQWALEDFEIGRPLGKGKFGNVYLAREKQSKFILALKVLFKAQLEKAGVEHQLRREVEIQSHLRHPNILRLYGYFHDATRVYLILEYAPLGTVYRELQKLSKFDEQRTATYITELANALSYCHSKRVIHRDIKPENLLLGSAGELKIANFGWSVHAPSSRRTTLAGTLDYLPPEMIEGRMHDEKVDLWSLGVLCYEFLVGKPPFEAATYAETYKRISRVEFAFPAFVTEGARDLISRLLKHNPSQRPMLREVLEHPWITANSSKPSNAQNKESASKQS

## FAM-CEP192 506-536: labelled peptide of Park et al 2023
Aurora-A
  Kd: 0.7 µM

B1: human CEP192 468–533 (domain or fragment, UniProt Q8TEP8 468-533, looked up)
chain: PQSVVYQNEEGRWVTDLAYYTSFNSKQNLNVSLSDEMNEDFRSGSEAFDLIAQDEEEFNKEHQFIQ
notes: also called CEP192_(506-527_F); source: E. coli B834 RIL, purified (HisTrap, TEV cleavage, SEC); for crystallisation co-expressed with Aurora-A^M7KD and co-purified; not shown: His6, N-terminal, cleaved; SUMO, N-terminal, cleaved
[1]
  IC50: 3.7 µM
[2]
  Kd: 0.134 µM
[3]
  Kd: 0.0806 µM
[4]
  ADP-Glo, 10 nM phosphorylated Aurora-A^CAKD with kemptide: IC50 of partial inhibition of kinase activity: 0.018 µM
[5]
  IC50: 5 µM

B2: CEP192 405-649: GST-tagged CEP192 fragment 405-649 (protein, UniProt Q8TEP8 405-649, looked up, fragment)
chain: HMDGCLDTETPTVSIQENVDVASLKPISDSGINFTDAIWSPTCERRTCECHESIEKNKDKTDLPQSVVYQNEEGRWVTDLAYYTSFNSKQNLNVSLSDEMNEDFRSGSEAFDLIAQDEEEFNKEHQFIQEENIDAHNTSVALGDTSWGATINYSLLRKSRSTSDLDKDDASYLRLSLGEFFAQRSEALGCLGGGNNVKRPSFGYFIRSPEKREPIALIRKSDVSRGNLEKEMAHLNHDLYSGDLN
modifications: GST tag
[6]
  co-precipitation of Aurora-A: able to interact significantly with Aurora

B3: FAM-CEP192 501–533 (peptide, UniProt Q8TEP8 501-533, looked up)
peptide: {FAM}-SDEMNEDFRSGSEAFDLIAQDEEEFNKEHQFIQ
notes: Made on Rink amide resin and labelled on resin after synthesis, so N-terminal label and C-terminal amide are likely; MS data of the peptides are in the source data; source: synthetic peptide
[7]
  Kd: 0.37 µM
[8]
  Kd: 0.42 µM and 1.17 µM
[9]
  Kd: 1.25 µM
